For this test, the target named is DGI-2 polypeptide (UniProt Q15004). Description: phage ELISA.
Chain of DGI-2 polypeptide (Q15004 whole entry): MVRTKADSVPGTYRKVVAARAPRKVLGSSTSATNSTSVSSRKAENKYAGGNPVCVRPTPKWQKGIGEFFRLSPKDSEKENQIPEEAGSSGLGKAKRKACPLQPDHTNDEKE

As to GRAGTSMTELVAWGFVQRVGAAAGAPVPYPDPLEPRP [DGI-2-20F-PP-H10], the DGI-2 (OD) was 1.4 OD and the DGI-2/LDH was 1.9.
